The values that follow come from article PMC5141474, “Diverse specificity of cellulosome attachment to the bacterial cell surface” (Scientific Reports, 2016).

Holding throughout (assay): ITC; VP-ITC, 318.15 K; Doc in the cell, Coh injected (28 x 10 uL); single site-binding model; proteins in 50 mM HEPES pH 7.5, 2 mM CaCl2, 0.5 mM TCEP
The target in experiment [1] is C. thermocellum CipB XDoc (X-module and type-II dockerin of CipB), expressed on its own (Clostridium thermocellum) (UniProt A3DGE8).
Experiment [2] addresses C. thermocellum CipB XDoc M114A (Clostridium thermocellum).
In experiment [3] the target is C. thermocellum CipB XDoc M118A (Clostridium thermocellum).
Experiment [4] addresses C. thermocellum CipB XDoc F148A (Clostridium thermocellum).
Experiment [5] deals with C. thermocellum CipB XDoc S121A (Clostridium thermocellum).
In experiment [6] the target is C. thermocellum CipB XDoc I154A (Clostridium thermocellum).
For experiment [7], the target named is T1, C. thermocellum ScaF Coh (type-II cohesin of anchoring scaffoldin ScaF), expressed on its own (Clostridium thermocellum, UniProt P71143 29-200).
T1 construct: single type-II cohesin of anchoring scaffoldin ScaF of Clostridium thermocellum (the Coh of PDB 2b59 and 2bm3); also called CohScaF; source: E. coli BL21 (DE3), pET28a, purified (IMAC)
T1 sequence (looked up): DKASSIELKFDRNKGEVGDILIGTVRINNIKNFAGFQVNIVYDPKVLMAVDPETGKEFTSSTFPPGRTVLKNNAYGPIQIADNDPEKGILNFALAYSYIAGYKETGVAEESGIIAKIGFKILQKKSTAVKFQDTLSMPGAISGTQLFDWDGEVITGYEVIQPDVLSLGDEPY
To be noted: both partners purified.

Some results are limits rather than exact numbers.

As for “C. thermocellum ScaC2 Coh (type-II cohesin of anchoring scaffoldin ScaC), expressed on its own (domain or fragment)”, the values for the Ka in experiment [1], in experiment [4] and in experiment [6] were more than 1e+09 M⁻¹, 619000 M⁻¹ and 1.2e+06 M⁻¹, respectively. The dH in experiment [1] was -12.4 kcal/mol; in experiment [2], -10.4 kcal/mol; in experiment [3], -8.66 kcal/mol; in experiment [4], -8.83 kcal/mol; in experiment [5] it was -10.3 kcal/mol; in experiment [6] it was -9.75 kcal/mol. The stoichiometry N (commonly a count of units in the complex or per binding partner) was 1.01 in experiment [4] and 1.02 in experiment [6].
Consider “C. thermocellum ScaE6 Coh (type-II cohesin of scaffoldin ScaE) (domain or fragment)”, for which the Ka in experiment [1] came out at 1.21e+07 M⁻¹; in experiment [2], 7.17e+06 M⁻¹; in experiment [3] it was 6.96e+06 M⁻¹; in experiment [5], 9.16e+06 M⁻¹; in experiment [6], 1.08e+07 M⁻¹. The dH in experiment [1] was -8.27 kcal/mol; in experiment [2] it was -13 kcal/mol; in experiment [3] it was -25.5 kcal/mol; in experiment [5] it was -6.93 kcal/mol; in experiment [6], -17.3 kcal/mol. The stoichiometry N in experiment [1] was 1; in experiment [2], 1.01; in experiment [3] it was 0.99; in experiment [5] it was 1.01; in experiment [6], 1.03.

B1: C. thermocellum CipB XDoc (X-module and type-II dockerin of CipB), expressed on its own (domain or fragment, Clostridium thermocellum)
chain: NNDSTDKTTVSGYISVDFDYPPESESKIKSGFNVKVAGTELSTKTDEKGYFEISGIPGDMREFTLEISKRNYLKRNVTVNGTGKLVVSTEDNPLILWAGDVERKGVQDNAINMVDVMEISKVFGTRAGDEEYVAELDLNMDGAINLFDIAIVIRHFNALPSRY
notes: CipB (ORF Cthe_1806, 2177 amino acids) of Clostridium thermocellum: X-module and C-terminal type-II dockerin (XDoc); numbers count on: the recombinant XDoc chain (X-module 1-98, Doc 99-164); also called XDocCipB; CipB type-II Doc; source: E. coli Tuner (DE3), pET21a, purified (IMAC)
As to B1, in experiment [7], the Ka was more than 1e+09 M⁻¹.
